Experimental data published in patent publication US20080176953A1, “Methods and compositions for treatment of ocular neovascularization and neural injury” (Allergan, Inc., priority 2000, published 2008).

Tests used:
photoreceptors = details: intravitreal injection of purified NGF; cited from earlier work
[1] = system: "wet" age-related macular degeneration (ARMD); assay: Photodynamic therapy (verteporfin) combined with intravenous PEDF in a patient, Example 1; type: in vivo
Protocol: The day of scheduled PDT treatment, the patient is administered 6 mg/M^2 of verteporfin. […] The treatment requires irradiation of the […].

retinoblastoma cells = details: cited from earlier work
brain neurons in culture = details: cited from earlier work

NGF: polypeptide known to have neuroprotective and neurotrophic effects
survival of photoreceptors (photoreceptors): Increased survival of photoreceptors

B1: PEDF: polypeptide originally isolated from cultured fetal human retinal pigment epithelial cells, approximate molecular weight 50 kDa (protein, UniProt P36955 20-418, looked up)
Pigment epithelium-derived …: QNPASPPEEGSPDPDSTGALVEEEDPFFKVPVNKLAAAVSNFGYDLYRVRSSTSPTTNVLLSPLSVATALSALSLGAEQRTESIIHRALYYDLISSPDIHGTYKELLDTVTAPQKNLKSASRIVFEKKLRIKSSFVAPLEKSYGTRPRVLTGNPRLDLQEINNWVQAQMKGKLARSTKEIPDEISILLLGVAHFKGQWVTKFDSRKTSLEDFYLDEERTVRVPMMSDPKAVLRYGLDSDLSCKIAQLPLTGSMSIIFFLPLKVTQNLTLIEESLTSEFIHDIDRELKTVQAVLTVPKLKLSYEGEVTKSLQEMKLQSLFDSPDFSKITGKPIKLTQVEHRAGFEWNEDGAGTTPSPGLQPAHLTFPLDYHLNQPFIFVLRDTDTGALLFIGKILDPRGP
visual acuity ([1]; 4 and 12 weeks following combined PDT and PEDF treatment): no discernable loss of vision
renewed neovascularization ([1]; 12 weeks following PDT treatment): No evidence of renewed neovascularization
optic nerve axon loss ([1]; after PDT with irradiation of the optic nerve): no evidence of optic nerve axon loss
Fluorescein angiography, leakage in the treated tissue ([1]; after one week and throughout the monitoring period): minimal leakage
visual inspection of the retina (affected areas) ([1]; one week following PDT, continuing through 12 week monitoring, intravenous PEDF every two days, verteporfin 6 mg/M^2): healthy with no whitening
differentiation of the retinoblastoma cells (retinoblastoma cells): induces differentiation
activity after heat incubation (retinoblastoma cells; incubation of PEDF at 75° C.): does not prevent PEDF from differentiating retinoblastoma cells
elaboration of neuron-like processes (retinoblastoma cells; undifferentiated retinoblastoma cells): stimulate the elaboration of neuron-like processes
life of brain neurons in culture (brain neurons in culture): prolongs the life
protection against acute neurotoxic insult (brain neurons in culture; e.g., glutamate toxicity): protects neurons
